The source of these data is patent US20130142799A1 (Amgen, published 2013).

In one test the target is T1, murine Ang-2, His-tagged (mouse, UniProt O35608 19-496).
T1 construct: also called mAng-2; mAng-2-His
T1 sequence (looked up): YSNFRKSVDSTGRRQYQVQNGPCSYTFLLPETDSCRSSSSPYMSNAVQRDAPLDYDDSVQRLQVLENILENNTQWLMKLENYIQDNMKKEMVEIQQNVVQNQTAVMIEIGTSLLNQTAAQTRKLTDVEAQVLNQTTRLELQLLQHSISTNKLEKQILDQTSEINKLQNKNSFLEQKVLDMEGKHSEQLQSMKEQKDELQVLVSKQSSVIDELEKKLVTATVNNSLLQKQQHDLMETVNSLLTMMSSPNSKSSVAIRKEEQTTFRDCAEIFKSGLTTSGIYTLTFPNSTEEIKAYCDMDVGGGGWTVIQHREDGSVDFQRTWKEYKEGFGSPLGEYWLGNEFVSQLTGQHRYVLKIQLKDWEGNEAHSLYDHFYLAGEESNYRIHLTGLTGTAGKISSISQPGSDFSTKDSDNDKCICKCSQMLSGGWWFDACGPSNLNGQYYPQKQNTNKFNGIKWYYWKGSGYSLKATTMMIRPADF
Description: Neutralization ELISA: antibody titrated against 1 nM Tie2-Fc on plate-bound mAng-2. A general note: ELISA stands for enzyme-linked immunosorbent assay.

In the next test the target is T2, human angiopoietin-1 (human, UniProt Q15389 20-498).
T2 construct: also called hAng-1; Human Ang1
T2 sequence (looked up): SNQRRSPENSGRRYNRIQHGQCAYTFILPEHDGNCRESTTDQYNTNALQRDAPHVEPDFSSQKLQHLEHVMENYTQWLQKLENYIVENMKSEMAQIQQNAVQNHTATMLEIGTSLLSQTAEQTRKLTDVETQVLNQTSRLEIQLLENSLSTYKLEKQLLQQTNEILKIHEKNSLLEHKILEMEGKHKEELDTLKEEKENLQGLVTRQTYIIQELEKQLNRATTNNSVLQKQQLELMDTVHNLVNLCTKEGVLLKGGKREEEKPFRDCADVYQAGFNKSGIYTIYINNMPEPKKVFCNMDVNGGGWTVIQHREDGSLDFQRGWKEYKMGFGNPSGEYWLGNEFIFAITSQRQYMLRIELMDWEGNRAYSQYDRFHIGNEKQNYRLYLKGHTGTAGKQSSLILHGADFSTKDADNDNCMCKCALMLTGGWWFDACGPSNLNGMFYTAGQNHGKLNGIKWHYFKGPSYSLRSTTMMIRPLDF
Description: Neutralization ELISA: antibody titrated against 1 nM Tie2-Fc on plate-bound hAng-1.

The target in another test is T3, human angiopoietin-2 (human, UniProt O15123 19-496, limits assumed).
T3 construct: also called hAng-2; huAng-2
T3 sequence (looked up): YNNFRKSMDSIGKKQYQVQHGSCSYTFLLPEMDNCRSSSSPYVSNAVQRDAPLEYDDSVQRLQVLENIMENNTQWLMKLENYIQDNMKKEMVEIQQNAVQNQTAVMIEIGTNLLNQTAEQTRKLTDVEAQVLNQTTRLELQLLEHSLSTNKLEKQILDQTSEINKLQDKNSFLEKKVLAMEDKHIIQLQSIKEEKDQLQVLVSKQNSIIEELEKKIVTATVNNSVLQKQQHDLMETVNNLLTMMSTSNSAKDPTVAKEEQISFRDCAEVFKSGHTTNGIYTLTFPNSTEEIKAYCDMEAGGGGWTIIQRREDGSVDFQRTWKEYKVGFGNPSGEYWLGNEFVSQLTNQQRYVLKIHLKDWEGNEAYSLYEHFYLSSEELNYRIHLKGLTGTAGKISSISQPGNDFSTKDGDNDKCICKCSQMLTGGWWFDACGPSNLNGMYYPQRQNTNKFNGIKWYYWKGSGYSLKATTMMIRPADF
Description: Neutralization ELISA: antibody titrated against 1 nM Tie2-Fc on plate-bound hAng-2. The procedure:
Microtiter plates to which human Ang-2 polypeptide was bound were prepared as described for the Affinity ELISA. […] Next, about 100 microliters per well of goat anti-mouse-IgG-HRP (Pierce Chemical CO., catalog #31432) was added at a dilution of 1:10,000 in PBS containing about 1 percent BSA. Plates were incubated at room temperature for about 1 hour, after which they were washed five times with PBS containing about 0.1 percent Tween-20. About 100 microliters per well of TMB substrate (described above) was then added and color was allowed to develop. Absorbance was then read in a spectrophotomer at 370 nm.
Seventeen of the antibodies and a negative control IgG1 (referred to as RDB1) were tested using affinity and neutralization ELISA (as described in Example 3 above) as well as the BIAcore neutralization assay to determine their affinity, neutralization, and specificity capabilities.

B1: Ab G1D4 (antibody, human IgG1, lambda, V domains shown)
VH: QVQLVQSGAEVKKPGSSVKVSCKASGGTFSSHAISWVRQAPGQGLEWMGRIIPILGIANYAQKFQGRVTITADESTSTAYMELSSLRSEDTAVYYCATSRLEWLLYLDYWGQGTLVTVSS
VL: NFMLTQPHSVSESPGKTVIIPCTRSSGSIASNYVQWYQKRPGSAPSIVIYEDKQRPSGVPDRFSGSIDSSSNSASLTISGLKTEDEADYYCQSYNSRGVMFGGGTKLTVLG
notes: Fully human IgG1 lambda
For B1, the half-inhibitory concentration (IC50) in the test with murine Ang-2, His-tagged worked out at 0.6 nM; with human angiopoietin-1 it was 69.5 nM; with human angiopoietin-2, 1.39 nM.

B2: Ab 533 (antibody, human IgG1, kappa, V domains shown)
VH: EVQLVQSGGGVVQPGRSLRLSCAASGFTFSSYGMHWVRQAPGKGLEWVSYISSSGSTIYYADSVKGRFTISRDNAKNSLYLQMNSLRAEDTAVYYCARDLLDYDILTGYGYWGQGTLVTVSS
VL: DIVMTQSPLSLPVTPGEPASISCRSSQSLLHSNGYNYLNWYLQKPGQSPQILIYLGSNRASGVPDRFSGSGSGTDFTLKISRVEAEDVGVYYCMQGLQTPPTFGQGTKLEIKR
notes: also called clone 533
B2: the IC50 in the test with murine Ang-2, His-tagged came to 0.08 nM; in the test with human angiopoietin-2 it was 0.3 nM.

B3: Ab 553 (antibody, human IgG1, kappa, V domains shown)
VH: QVQLVQSGAEVKKPGASVKVSCKASGYTFTSYAMHWVRQAPGQRLEWMGWINAGNGNTKYSQKFQGRVTITRDTSASTAYMELSGLRSEDTAVYYCARGVDDYGGNSWAFDIWGQGTMVTVSS
VL: DIVMTQSPLSLPVTPGEPASISCRSSQSLLHSNGYNYLDWYLQKPGQSPQLLIYLGSNRASGVPDRFTGSGSATDFTLRISRVEAEDVGVYYCMQALQTPLTFGGGTKVEIKR
notes: Fully human IgG1 kappa
Consider B3, for which the IC50 in the test with murine Ang-2, His-tagged worked out at 1.41 nM; with human angiopoietin-2, 1.47 nM.

B4: Ab 537 (antibody, human IgG1, V domains shown)
VH: QVQLVQSGAEVKKPGSSVKVSCKASGGTFSSYAISWVRQAPGQGLEWMGGIIPILGIANYAQKFQGRVTITADKSTSTAYMELSGLGSEDTAVYYCARGSSDAAVAGMWGQGTLVTVSS
VL: QSVLTQPPSVSAAPGQDVTISCSGNNSNIGNNYVSWYQQVPGTAPKLLVYDNHKRPSGISDRFSGSKSDTSATLDITGLQPGDEADYYCGTWDTSLSANWVFGGGTKLTVLR
notes: Fully human IgG1 lambda; also called clone 537
Regarding B4, the concentration for half-maximal inhibition (IC50) with murine Ang-2, His-tagged came out at 0.62 nM; with human angiopoietin-2, 0.56 nM.

B5: Ab 544 (antibody, human IgG1, lambda, V domains shown)
VH: QVQLVQSGAEVKKPGASVKVSCKASGGTFSSYAISWVRQAPGQGLEWMGGIIPIFGTANYAQKFQGRVTITADESTSTAYMELSSLRSEDTAVYYCARFESGYWGDAFDIWGQGTMVTVSS
VL: SYELTQPPSVSVSPGQTARITCSGDALPKQYAYWYQQKPGQAPVLVIYKDSERPSGIPERFSGSSSGTTVTLTISGVQAEDEADYYCQSADSSHVVFGGGTKLTVLG
notes: also called clone 544
As to B5, the half-maximal inhibitory concentration (IC50) in the test with murine Ang-2, His-tagged turned out to be 1.82 nM; with human angiopoietin-1 it was 23.3 nM; with human angiopoietin-2 it was 0.97 nM.

B6: Ab 535 (antibody, human IgG1, lambda, V domains shown)
VH: QVQLVQSGAEVKKPGSSVKVSCKASGGTFSSYAISWVRQAPGQGLEWMGGIIPIFGTANYAQKFQGRVTITADKSTSTAYMELSSLRSEDTAVYYCAAFSPFTETDAFDIWGQGTMVTVSS
VL: QSVLTQPPSVSAAPGQKVTISCSGSNSNIGNNFVSWYQQLPGTAPKLLVYDNNKRPSGIPDRFSGSKSGTSATLGITGLQTGDEADYYCGTWDSSLSAAEVVFGGGTKLTVLG
notes: Fully human IgG1 lambda
B6: the IC50 was found to be 2.45 nM with murine Ang-2, His-tagged and 2.81 nM in the test with human angiopoietin-2.

B7: Ab 526 (antibody, human IgG1, kappa, V domains shown)
VH: EVQLVESGGGVVQPGRSLRLSCAASGFTFSSYGMHWVRQAPGKGLEWVSAISGSGGSTYYADSVKGRFTISRDNAKNSLYLQMNSLRAEDTAVYYCARDLLDYDILTGPYAYWGQGTLVTVSS
VL: not shown
notes: Fully human IgG1 kappa
Turning to B7, the IC50 with murine Ang-2, His-tagged amounted to 0.27 nM; in the test with human angiopoietin-1, 243 nM; with human angiopoietin-2 it was 1.83 nM.

B8: Ab 555 (antibody, human IgG1, kappa, V domains shown)
VH: QVQLQESGGGVVQPGRSLRLSCAASGFTFSSYAMHWVRQAPGKGLEWVAVISYDGSNKYYADSVKGRFTISRDNSKNTLYLQMNSLRAEDTAVYYCARSASDHYYDSSGYYSDAFDIWGQGTMVTVSS
VL: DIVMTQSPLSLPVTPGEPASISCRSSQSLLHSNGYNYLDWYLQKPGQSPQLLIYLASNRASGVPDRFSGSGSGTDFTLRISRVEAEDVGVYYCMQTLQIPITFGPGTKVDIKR
notes: Fully human IgG1 kappa
As for B8, the IC50 in the test with murine Ang-2, His-tagged worked out at 1.76 nM; with human angiopoietin-2, 2.21 nM.

B9: Ab 543 (antibody, human IgG1, kappa, V domains shown)
VH: QVQLVQSGAEVKKPGSSVKVSCKASGGTFSSYAISWVRQAPGQGLEWMGRIIPILGIANYAQKFQGRVTITADKSTSTAYMELSSLRSEDTAVYYCARPYYDFWSGPGGMDVWGQGTTVTVSS
VL: not shown
notes: Fully human IgG1 kappa
For the molecule B9, the IC50 came out at 0.24 nM in the test with murine Ang-2, His-tagged and 0.51 nM with human angiopoietin-2.

B10: Ab 528 (antibody, human IgG1, lambda, V domains shown)
VH: QVQLVQSGAEVKKPGSSVKVSCKASGGTFSSYAISWVRQAPGQGLEWMGGIIPIFGTANYAQKFQGRVTITADESTSTAYMELSSLRSEDTAVYYCARGVVGDFDWLSFFDYWGQGTLVTVSS
VL: SYELTQPPSVSVSPGQTASITCSGDKLGYTYTSWFQQKPGQSPVLVIFQDFKRPSGIPERFSGSNSGNTATLTISGTQAMDEADYYCQAWDSTTAVVFGTGTKVTVLG
notes: Fully human IgG1 lambda
B10: the half-inhibitory concentration (IC50) in the test with murine Ang-2, His-tagged is 0.73 nM; with human angiopoietin-2, 1.37 nM.

B11: Ab 540 (antibody, human IgG1, lambda, V domains shown)
VH: QVQLVQSGAEVKKPGSSVKVSCKASGGTFSSYAISWVRQAPGQGLEWMGGIIPILGIANYAQKFQGRVTITADKFTSTAYMELSSLGSEDTAVYYCARAVPGTEDAFDIWGQGTMVTVSS
VL: QSVLTQPPSVSAAPGQKVTISCSGSSSNIGANYVSWYQQLPGTAPKLLIYNNNKRPSGIPDRFSGSKSDTSATLGITGLQTGDEADYYCGAWDSSLSASWVFGGGTKLTVLG
notes: Fully human IgG1 lambda
Consider B11, for which the IC50 with murine Ang-2, His-tagged was 1.53 nM; with human angiopoietin-2, 0.7 nM.

B12: Ab 531 (antibody, human IgG1, lambda, V domains shown)
VH: EVQLVQSGAEVKKPGSSVKVSCKASGGTFSSYAISWVRQAPGQGLEWMGGIIPILGIANYAQKFQGRVTITADKSTNTAYMELTSLTSDDTAVYYCARDREDTAMVFNYWGQGTLVTVSS
VL: QSVLTQPPSVSAAPGQKVTVSCSGSSSNIGNNYVSWYQQLPGTAPKLLIYDNNKRPSGIPDRFSGSKSGTSATLGITGLQTGDEADYYCGTWDSSLSAFWVFGGGTKLTVLG
notes: Fully human IgG1 lambda
As to B12, the half-inhibitory concentration (IC50) with murine Ang-2, His-tagged came to 1.67 nM; with human angiopoietin-2, 2.15 nM.

The term IC50 denotes the concentration at which inhibition is half-maximal. A high value points to lower potency.
